Experiments:
[1] = molecular target: PP2A-B55 heterotrimer (B55 isoform not named for the experiment) (not stated | human (endogenous in HEK293)) (UniProt P63151)
[2] = molecular target: PP2A-B55 heterotrimer (B55 isoform not named for the experiment) (not stated | human (endogenous in HEK293)) (UniProt P63151); test: inhibition of phosphatase activity, IC50 converted to Kd; PP2A-B55 at 0.125 nM, radioactive CDKS substrate at 5 μM, varying thiophosphorylated Endos; Kd calculated from the IC50 according to the equation of Sasaki et al. (1994) and Takai et al. (1995)
[3] = molecular target: PP2A-B55 heterotrimer (B55 isoform not named for the experiment) (not stated | human (endogenous in HEK293)) (UniProt P63151); remark: listed apart in the source
[4] = molecular target: PP2A-B55 heterotrimer (B55 isoform not named for the experiment) (not stated | human (endogenous in HEK293)) (UniProt P63151); test: rate constants calculated from constants of phosphatase activity assays; kon and koff determined from the experimentally measured Kd (for thiophosphorylated Endos) and kcat; used for the theoretical time-course of Figure 10A
[5] = molecular target: PP2A-B55α heterotrimer (not stated | human (endogenous in HEK293)) (UniProt P63151)

Sequence of UniProt P63151 (P63151 whole entry, chain 1 of 3, canonical isoform): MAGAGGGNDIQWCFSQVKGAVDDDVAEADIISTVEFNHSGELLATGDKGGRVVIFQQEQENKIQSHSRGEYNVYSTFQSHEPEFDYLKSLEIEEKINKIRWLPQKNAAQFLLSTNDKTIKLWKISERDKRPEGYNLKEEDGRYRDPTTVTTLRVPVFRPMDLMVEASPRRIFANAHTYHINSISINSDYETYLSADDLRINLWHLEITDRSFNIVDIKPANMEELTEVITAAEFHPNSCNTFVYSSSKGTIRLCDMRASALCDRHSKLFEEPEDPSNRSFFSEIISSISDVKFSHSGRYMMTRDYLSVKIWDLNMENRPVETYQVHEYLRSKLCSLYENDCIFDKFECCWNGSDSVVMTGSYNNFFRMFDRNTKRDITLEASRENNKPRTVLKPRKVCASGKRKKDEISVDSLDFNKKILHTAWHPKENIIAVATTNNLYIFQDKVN
Sequence of UniProt P63151 (P30153 whole entry, chain 2 of 3, further chain, canonical isoform): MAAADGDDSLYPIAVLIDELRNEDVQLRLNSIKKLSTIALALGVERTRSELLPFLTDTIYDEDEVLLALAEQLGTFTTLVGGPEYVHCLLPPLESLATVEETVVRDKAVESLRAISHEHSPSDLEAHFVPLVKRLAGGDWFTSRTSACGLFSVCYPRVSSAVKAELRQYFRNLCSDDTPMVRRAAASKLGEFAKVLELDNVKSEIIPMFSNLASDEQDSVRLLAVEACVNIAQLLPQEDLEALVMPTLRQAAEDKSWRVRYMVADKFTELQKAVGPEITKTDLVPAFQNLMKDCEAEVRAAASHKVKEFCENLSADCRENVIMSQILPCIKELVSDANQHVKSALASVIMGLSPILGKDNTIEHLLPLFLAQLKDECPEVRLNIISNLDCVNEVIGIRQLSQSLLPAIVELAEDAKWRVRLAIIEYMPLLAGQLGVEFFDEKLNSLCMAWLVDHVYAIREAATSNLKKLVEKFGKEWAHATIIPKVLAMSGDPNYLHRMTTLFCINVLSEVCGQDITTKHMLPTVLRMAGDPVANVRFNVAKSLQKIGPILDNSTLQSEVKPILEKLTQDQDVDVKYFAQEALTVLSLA
Sequence of UniProt P63151 (P67775 whole entry, chain 3 of 3, further chain, canonical isoform): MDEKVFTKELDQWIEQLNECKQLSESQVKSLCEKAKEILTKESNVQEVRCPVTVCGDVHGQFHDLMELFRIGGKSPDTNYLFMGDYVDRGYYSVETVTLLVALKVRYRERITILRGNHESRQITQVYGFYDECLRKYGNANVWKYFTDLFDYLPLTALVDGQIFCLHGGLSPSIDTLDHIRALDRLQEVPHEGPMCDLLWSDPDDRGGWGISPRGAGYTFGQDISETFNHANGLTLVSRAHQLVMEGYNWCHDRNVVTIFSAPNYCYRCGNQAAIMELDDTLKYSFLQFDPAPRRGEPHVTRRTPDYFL

B1: Xenopus Endosulfine thiophosphorylated by Gwl kinase (natural protein)
chain: MSDKYIGDSHLEETGEEKQDSQEKEAVTPEKAEEQKLKAKYPNLGQKPGGSDFLMKRLQKGQKYFDSGDYNMAKAKIKNKQLPCAGPDKNLVTGDHIPTPQDLPQRKSSLVTSKLAGHVEDLHHV
modifications: thiophosphorylated by Gwl in the presence of 1 mM ATP-[γ]-35S instead of ATP
- IC50 of inhibition of PP2A-B55's anti-CDKS activity (dephosphorylation of radioactive pCDKS) [1]: 197 pM
- Kd [2]: 0.12 nM

B2: Gwl-phosphorylated Xenopus Endosulfine (pEndos) (natural protein)
chain: MSDKYIGDSHLEETGEEKQDSQEKEAVTPEKAEEQKLKAKYPNLGQKPGGSDFLMKRLQKGQKYFDSGDYNMAKAKIKNKQLPCAGPDKNLVTGDHIPTPQDLPQRKSSLVTSKLAGHVEDLHHV
modifications: phosphorylated in vitro by Gwl kinase at the Gwl site (32P-labelled or non-radioactive); between 0.5 and 1.0 phosphate per mole of protein
- Km of pEndos for PP2A-B55, best fit to the time course of pCDKS dephosphorylation with 16 nM unlabeled pEndos (Figure 8B) [3]: 0.47 nM
- koff [4]: 0.0068 s⁻¹

B3: unphosphorylated Xenopus Endosulfine (natural protein)
chain: MSDKYIGDSHLEETGEEKQDSQEKEAVTPEKAEEQKLKAKYPNLGQKPGGSDFLMKRLQKGQKYFDSGDYNMAKAKIKNKQLPCAGPDKNLVTGDHIPTPQDLPQRKSSLVTSKLAGHVEDLHHV
- IC50 of inhibition of PP2A-B55's anti-CDKS activity (dephosphorylation of radioactive pCDKS) [1]: 566 nM

B4: phosphomimetic Drosophila Endos (S68D) (natural protein)
chain: MSSAEENSNSPATTPQDTETTEQANLTDLEKIEEEKLKSKYPSGMRVPGGHSAFLQKRLQKGQKFFDDGDYQMAKQKGGGVKQVFANKVTTGEAIPTPETVPARKTSIIQPCNKFPATS
- IC50 of inhibition of the anti-CDKS activity of purified PP2A-B55α (Figure 6D) [5]: 500 nM

Source: article PMC3949306
